Experiment: label from the status in PepcDB records

| Sequence | protein production |
| --- | --- |
| MQDSLGIMIKKANNALARDSDHYAKSLGLTGMQISTINFIANNEQHHDLFQRDLELEFNIRKATCSSLVSKMEAADLLIRVPAKDDGRYKRLLLTPKARQLATKIERFFETSEQRMATILGVNTAETYEALRQIAVAFSTPTHAPENWYLEHHHHHH | not failed |
| MFELFQYDFMRNALLAATAISIFSPLLGVFLVLRRQSLMSDTLSHVSLAGVAFGVLLSWNPTITTLITVVIAAVFLEYLRTIYHNYMEIATAILMSAGLAIALLILNSSKGATSVSLEQYLFGSIITISLSQVIMLFVLAAVVLLGFILFLRPLYVMTFDEDTAFVDGLPVRWISIAFNIVTGVAIALMIPAAGALLVSAIMVLPASIAMRLGKSFKAVLFISAIVSFIGLNAGLIASYYMDAPASAAITLIFIVLFLVTSSLKRLIRA | failed |
| MHVQEWLETVPAVSIYALVGLVIGLESLGIPLPGEIVLISAALLSSQHGGINPVILGICATVGAVVGDSIGYAIGRKGGRPLLAWLGNKFPRHFGEGHIATAERSFEKWGMWAVFFGRFVALLRIFAGPLAGVLRMPYWKFLIANVLGGIIWAGGTTAVIYYVGVVAESWLKRFSYLGLVAAVLIGLASMLVIKRKAKKAAAEREAAEPETVPAAD | failed |
| MSLNRRELLERISEYQFACIELNLYLDNNPRDKKALDSYNRYCDKFTQAVCDYESKYGALTNFGYESSEYPWSWISEPWPWDKSFYKLEHHHHHH | not failed |
| SRVLSRMSGTIRHFQAITLALSRERDLERMLDGVLSHLVEAAGGDAGGVYLYDAEQALLRLAASCRGEHYPSELAVDESARQHLAATVTQALSLHERSLAVVLNDRSQALLGILVLQMGEEQAQERVGEAFRRFVEELSGVAAVAIETRQLVEAQQRLLDA | failed |
| MTFSKELREASRPIIDDIYNDGFIQDLLAGKLSNQAVRQYLRADASYLKEFTNIYAMLIPKMSSMEDVKFLVEQIEFMLEGEVEAHEVLADFINEPYEEIVKEKVWPPSGDHYIKHMYFNAFARENAAFTIAAMAPCPYVYAVIGKRAMEDPKLNKESVTSKWFQFYSTEMDELVDVFDQLMDRLTKHCSETEKKEIKENFLQSTIHERHFFNMAYINEKWEYGGNNNE | not failed |
| MIIGIDVGGTNTDAAIVSDEIKTIKLPNEAGIGGILKEISKEANLIEEKVVVSTSWPLNLIISKFSESRTLSLVIPGPGLNYSEYGEVLKGYVNHRGDVVEDIDEYEIAAIFRENSYDNVAISSKFSVRNGSLEDRVAEIVRNYV | failed |
| MVIIGSKGCAKEILTALKWDNVEETVSLFDNINTDISDAYYDFPIIKSWNELEQHLKTDSKVIIGVGGGQRREVLARKIACLGGVLTTFISQKALVGGYDNTIEPGVVILSGATITCNVSIGQGTFINKSTVISHDVRIGRYCEVSPGAKVLGRAIIGDRTEIGANAVILPDVIVGADCKIGAGAVVTRNIDSHTTVAGVPARSITKSSNNAFKLKSKIRNLLYHIRIADFRKLREYNHYVFGKRKLMFLELLSHSWMYGASFENYYELQFFKKSRTECRQYLTSSLRHELTRQVNDPCEALVLKDKVRFSEVFEDILGRRVMTFDEIKRQMHDPYSISINEVVIKPIKGQAGQGIIFPMQNFTSLRQLHDYVISTVKKPDEYLYEERIIQHSALNKLNPSSLNTLRIVTYYDESINKVDVWSVVLRIGIKARTDNFATGGIAVLVDHRGVVCQPAIIKHPSGERFHIHPVSGEKITGCIIPYYDQAIALAKQAAMRIPKVRSIGWDVAITETGPYMLEGNDNWCMTLFQLPGGEGLRHLANSVCNMFSVYE | failed |
| MLLRLPLLDLTPLPAPFYELAKDVEQSLITDPEKAREVAAKLHAATDTAQGLHRAYAELLLARTLLSTRQWQAALESFEKARKSLLALERAALVAHAVLGRVYILLGTGQYAEASAEAAELEAQLANGPVQAMEIRALALNAIAYAEYAQGRPVQAINHLKEALKLREQLSPIIIAACLCNLGISNIEQGNYREAIYWLMEAYRAHPDSNEDRQLELATLTNLAYAHYLAGDLSLATEITQKAYAAAGEWQSYKVRAYSALNLGTYNTELQQTGRARSYLQEALVLSQTQPELTADAVLRASILDSLGTLEHQDGNSESALELYTRAREIAQRDELPAVEALTQLNIGRMLGQLGRPEARAELERALELAVAACLFKEQFEAHTALAELTAAAADWRSAYRHQQELTRLKLHLLEGEHERQRKELRAELDLEQMRREGELSRERLKIEVAARERAEAETLERTQQLAQAQREVVLCLALAAEYRDSITGEHIKRVGTFAAHIALALGWSQADAELLMLASRLHDVGKIGIPDSILLKPGKLTEVEYVQMQAHTLIGSQILGQGNSALLKLAQTIALSHHERWNGEGYPYGLHGEAIPLAGRIVAVADVYDALIQRRPYKAAWTPEQAAAELSAQAGRHFDPALVEVALRILNDVHYSVDELKELGPPTVGPAAASLERELALRTQELQEARKNAGELLQLALSDSLTGLHNRRALELDLEQRIYPGAVDFYMTSLDLDSLKEINDSQGHQYGDQLLRQFALCLRQSCAAGKTYRIGGDEFAVLWNLDVTEQDIVQVLRRLPQNLRVTGQPGISFSYGSACYNRDAATAGDLLRVSDARMYRMKVGRRGEETDSIWFKEDH | failed |
| MNPKHSCTNFGADIPVNSQLIVTTSELRQKLKEKNKFILVDNRTWDEHIGKVSGYTYYDKKGRIPGALYGHSGSDSVSLEEYRNIDNTMRNKYEILEMWDKENIDVNKQLIFMCGSGWRAAEVLTYANVIGVENTSLYSDGWMGWSLDNSNLIEVGEHKLEHHHHHH | failed |
| MKKMLPESKVESIRKEGFLNRAVEAYRFFYPTVSNVSNFKALHDLGITENHDFIIQLTTPDLNVLTQNSDTPYCLGTGNTENGPVVIELPLGAIVGVADDINFKFITNMGLTGDEEGKGAKYLYLPPNYDGDIPEGYIVRKPSSFRFLICLRAMVHQASDYEKAFELLKTVKFYPLKEAKNNPTSTFHDFSHRKAISTPYYVEGKFDYWEVIKWALDNDETDPEYYQMYGLLKAIGLAPNKEFNPDSDTKALLIEAAEKADKMMFVNSFNTDDPAAIVWPGKNWEWAVYGENNDFYEKTYLNLPVRERWFYQATLETHMMFMHKVGFGSVYMLGVKDKEGNYLDGGKSYTLKVPTPVPTSIFWSVTVYEMDTRSEIVTEQFMPALNSIKDTFEADADGNTTLYFGPNPPEDESLPWIQTVPDANWFTYFRIYGPTEPAFDNSWQLYDFEEVK | failed |
| MSVAFVPDWLRGKAEVNQETIQRLLEENDQLIRCIVEYQNKGRGNECVQYQHVLHRNLIYLATIADASPTSTSKAME | failed |
| MTYQKIIDKINQQISQHVYLGASLALYDGQWQEFYLGETIPHHKTKAGLVYDLASVSKVVGVGTVIIFLLQANHLKLDEPLQAYYPNFHDSSVTIRQLLTHTSGIDPFIPNRNKLDFAALKQAINHIEVTKTKSFHYTDLNFILLGFLLEEFYDQSLDRIIKEHVLKPFGMEKTSFGPVKRAVPTGKTIPIGRVHDPKAQVLGIHTGSAGLFSNLEDLKCFVNHYLSDAFAKPLTQDFAYADKTRSLAWDLTGDWLFHTGYTGTFILLNIKKQSAAIFLSNRTYEKDERSQWILDRNDLIEVIKAALKKVSDSNCD | failed |
| NGVWVIGEQREGKINPVTIELIGEGRKLADQLGKELAVVIAGYEVEKEVKELLHYSVDKVYYINDPLLKDFTTDGYAISIANLIERKKPEVVLVGATSIGRDIAPRIAGKVGTGLTADCTKLEIDSTDNKLLQTRPAFGGNLMATIVCPKNRPQMSTVRPGVMAKAVRNESETGILEVVTPELTEKMIRTRLVEILPQEKKSVN | not failed |
| MCLPIHVKYDWFCRLCKTGRTLRPTSLQRGRAMASLTLRHLAGNTWLIPAPAAIGVYVRNGRAVLIDSGNDEEAGRQILKLLNGQGWTLDLIVNTHSNADHIGGNAFLQKKTGCRVAATVPEAAFIANPILEPSFLYGGYPVKALRNKFLMAKPSTVTDIIEAIGPILDTGLEAVPLAGHFFGMIGIRTPDGVLFAADSLFPETILAKYPIFYLYDIREHLASLQRLRELEAAIYVPSHGAPSPEILPLIEANEQRVRQTVSFVESCCTDAPASFETVLERVCGEYGIVLDPNQYVLVGNTIRSILAFLSEEGRLAMIFDGGRLLWGTAADQREA | failed |
| MWARTAAWVFGLPETLREICYRRDNVKPVDELQKTIGHRFGDMELLLTAMTHSSWANEQAVPVEHNERLEFLGDAVLELCVSEELFRRFPSAREGDLTRMRSRLVSKPSLEGVARELRLDMSLRLGKGEESQGGRERGSLLSDALEAMLGAVFLDAGYIAAKGVVMRILGPHFPEALVPVRTKDYKSQLQELTQKLFRDRPVYTLLGSSGPEHDKQFDVRVVLPDGTVFEATGPSMKRAEQMAAARAVATLDK | failed |
| MGKKQKMKKAAQMATAAEKLKTAAEKSKTAADNVVAKEKPAEEASPSPSGSGKKGKPKATQKPNVAKALQKEISSSEDALDVKNKPPAGFSGAKGKPHIMGQMDPAYRNKIKKLMSLAKQLPPNVFSLPNSQKEEGASAAKSCVVEDDQSTDSDDAPDLVEADPKETQPDEQGQLGTVAVRTREVSKQSRGERKARRILMKLDLKPMENVARVTMKKGKNILLYIDQPDVYRVAHSSTYIFFGEICVEDTSTTSVASQAAVKAAERFRGTSPAGRQGNEDGKAPGEESPHDDDDDENDGEDADAMGLHAKDIELVQMQAACSRKKAIQALLKNDNDVVNAIMALTVG | failed |
| MVLYFIGLGLYDERDITVKGLEIAKKCDYVFAEFYTSLMAGTTLGRIQKLIGKEIRVLSREDVELNFENIVLPLAKENDVAFLTPGDPLVATTHAELRIRAKRAGVESYVIHAPSIYSAVGITGMHIYKFGKSATVAYPEGNWFPTSYYDVIKENAERGLHTLLFLDIKAEKRMYMTANEAMELLLKVEDMKKGGVFTDDTLVVVLARAGSLNPTIRAGYVKDLIREDFGDPPHILIVPGKLHIVEAEYLVEIAGAPREILRVNV | not failed |
| MSTTGDSAPQISGTAESAKECADWQALLERIPYAQHLGLEVQRGDVGVLVHLPCREALIGNFMLPALHGGVLGALIELTARVAAQSQDAETRCPRILDSHINYLRSAKARSTFARADIIRQGRRTSLVQVTCWQGDDKKPIATGQVQLLLPTMAAQQEDRHGH | failed |
| MGHHHHHHSHMQFFLPDATATHQFGVLLGQRLLASSTLLLEGDLGSGKTTLTQGIAQGLGIPDVVASPTFTLVCEYSEGRLPLYHFDLYRLEAPDVARLLPELYWEGVEFEPGLVVIEWPERLPYRPAAYWSLVLTPSLELEGRQLVLTPVNQDPTTVANLEVQLAAQFRARPATAES | not failed |
| MGHHHHHHSHMPLVKRNIDPRHLCHTALPRGIKNELECVTNISLANIIRQLSSLSKYAEDIFGELFNEAHSFSFRVNSLQERVDRLSVSVTQLDPKEEELSLQDITMRKAFRSSTIQDQQLFDRKTLPIPLQETYDVCEQPPPLNILT | not failed |
| MKAKIYYNGNIITMEDSICGDAILIKDKIIKKIGTKEEVFALKNKDTEIIDLQGKTLMPSFIDSHSHLIAFATTLKLVPLEDATSFKDIVKKIQDFKESLEHHHHHH | failed |
| MSTDFDRIYLNQSKFSGRFRIADSGLGWKISTSGGSAANQARKPFLLPATELSTVQWSRGCRGYDLKINTKNQGVIQLDGFSQDDYNLIKNDFHRRFNIQVEQREHSLRGWNWGKTDLARNEMVFALNGKPTFEIPYARINNTNLTSKNEVGIEFNIQDEEYQPAGDE | not failed |
| MFIKVKLPWDVTIPAEDMDTGLMLQRAIVIRLLEAFSKEKATKDLGYLITPTILENIGEGKIKEQTGEIQFPVVFNGICFKMFKGEIVHGVVHKVHKTGVFLKSGPYEIIYLSHMKMPGYEFIPGENPFFMNQYMSRIQIGARVRFVVLDTEWREAEKDFMALASIDGDNLGPF | failed |
| MALMTNKTRALLIGGHGKVALLATPMLIDASVQVTSMYRNPDHRSEIEALGATTLERDVTTLSVEDWADLLKDFDVVVWSAGNGGKNGADATYAIDRDAAIASIDGAASLGEKAPRYIMVSYIGSSTHTIDPSASFYPYAESKKAADEHLSSTNLDYLILAPAALTLDEVNGVEVIADTNEAAAGRTTSRVLVAEVITEFVVRDFPQTRVLPFVDGLEHHHHHH | failed |

From a protein production outcome set (Wang et al. 2014)
